Assay results published in patent publication US20240083958A1, “G PROTEIN PEPTIDOMIMETICS” (VRIJE UNIVERSITEIT BRUSSEL, priority 2020, published 2024).
Like-named read-outs stand apart in the source and are kept apart here. Bridge positions count the residues as written; N and C are the ends. Square brackets hold non-standard residues; d marks the D form. Primed or numbered codes have the meaning given here. Triazole bridges read from a SMILES are 1,4-linked. Peptide text beside a SMILES is read from it. ξ: configuration not given here. Pra″ = alkyne-bearing residue joined to Azk by a CuAAC triazole staple; Azk = residue with azidated side chain, clicked to Pra; Pra′ = residue with alkynyl side chain, clicked to Azk; Lys(N3) = [N-]=[N+]=NCCCC[C@H](N)C(=O)O; 1Nal = N[C@@H](Cc1cccc2ccccc12)C(=O)O; Cha = N[C@@H](CC1CCCCC1)C(=O)O; Ile(3ξ) = CCC(C)[C@H](N)C(=O)O; S5 = C=CCCC[C@](C)(N)C(=O)O; Pra = C#CC[C@H](N)C(=O)O

Key:
human β2AR [1] = biological target: T1, human β2AR (Homo sapiens, UniProt P07550, N187E); test: Radioligand binding assay (RLA) with human β2AR, 3H-dihydroalprenolol (DHA) as radioligand, isoproterenol (agonist) as cold competitor, in presence and absence of the peptidomimetic; parameters: key to Shift: ratio IC50 basal (no peptide) / IC50 with peptidomimetic
T1 construct: made in house; host or cells: Sf9 insect cells (Bac-to-Bac baculovirus); membrane extracts
Method: β2AR365N constructs were expressed in Sf9 insect cells, using the Bac-to-Bac® Baculovirus Expression System. The membrane extracts were prepared from cells that expressed β2AR. Subsequently, the cell pellet was resuspended in a buffer (1 ml buffer/2×1E7 cells) containing 75 mM Tris pH 7.4, 12.5 mM MgCl2, 1 mM EDTA, Leupeptin and PMSF as protease inhibitors. Afterwards the cells were vortexed and homogenized in ice using a small volume Ultraturrax (6×10 sec). The cells were then centrifuged for 15 min at 16000 rcf, in a pre-cooled centrifuge (4° C.) and resuspended in the previous buffer containing 10% sucrose. Finally, the membranes were again homogenized in ice with the small volume Ultraturrax (3×10 sec). The protein concentration in the membrane fragments was determined using a Pierce BCA Protein Assay Kit and the protein concentration was extrapolated from the Bovine Serum Albumine standard curve.
To perform the radioligand competition binding assays, 96-well plates were used. For the assays on β2AR, the membrane extracts as well as the peptides were prepared in a binding buffer (75 mM Tris pH 7.4, 12.5 mM MgCl2, 1 mM EDTA, 0.2% BSA). The ligand (isoproterenol) and radioligand ([^3H]-dihydroalprenolol) were dissolved in ligand buffer (75 mM Tris pH 7.4, 12.5 mM MgCl2, 1 mM EDTA, 0.2% BSA and 0.1% ascorbic acid), at 1 mM and 2 nM, respectively. A ten-fold dilution series of the ligand was prepared to obtain a dose response curve. For each reaction 100 μl membrane extract, 50 μl ligand, 50 μl peptide or binding buffer containing 1% DMSO and 50 μl of radioligand was added to the V-bottom storage plate, with a total volume of 250 μl per well. Afterwards, the plates were incubated at room temperature for 2 h on a plate shaker (150 rpm). The samples were harvested into filter plates and washed with ice cold washing buffer (75 mM Tris pH 7,4) using the 96-well harvester. The plates were dried for 1 h at 50° C. and then sealed to allow the addition of 30 μl scintillation liquid to each well. Finally, the top of each plate was sealed and the plates were placed in a Wallac MICROBETA® Trilux scintillation counter and incubated for 30 min in the dark.
After the Microbeta scintillation counter, the experimental data was further analyzed using Graphpad Prism 6.0. After normalization of the raw data, a nonlinear regression was used to fit the data in a one-site binding model, with the total binding set as 100% and the non-specific binding between 0 and 5%. The IC50 values, obtained from the competition curves, were used to determine the shift for each peptide, which is the ratio of IC50 of the agonist test compound on the basal conformation (e.g. IC50 β2AR with no peptidomimetic) versus the active conformation (e.g. IC50 β2AR+peptidomimetic) of the receptor. For certain peptide analogues, a biphasic binding curve was observed and therefore fitted by a two-site model (nonlinear regression), resulting in two IC50 values (IC50Hi and IC50Lo) and a FractionHi, the fraction of receptors in the active state.
Synthesised peptidomimetics were evaluated using a radioligand binding assay (RLA) with a human β2AR, using ^3H-dihydroalprenolol (DHA) as the radioligand and increasing concentrations of isoproterenol (agonist) as cold competitor. In particular, the pharmacological stabilization of the receptor in the active conformation was evaluated by performing the radioligand displacement assay (RLA) in the presence and absence of the peptidomimetics. This validated assay quantifies the pharmacological stabilization of the receptor in the active conformation by comparing the affinities of an agonist for the basal versus the active GPCR conformer (Pardon et al. (2018) Angewandte Chemie International Edition 57, 5292-5295). During the assay, the binding affinity of an orthosteric agonist for the receptor, in particular isoproterenol for human β2AR, in presence and absence of the allosteric peptidomimetic was determined. […]

human β2AR [2] = biological target: T2, human β2AR (human, UniProt P07550 2-365); test: cell-based or functional assay
human β2AR [3] = biological target: T2, human β2AR; test: cell-based or functional assay; remark: listed apart in the source
human β2AR [4] = biological target: T2, human β2AR; test: cell-based or functional assay; remark: listed apart in the source
human β2AR [5] = biological target: T2, human β2AR; test: cell-based or functional assay; remark: listed apart in the source
human β2AR [6] = biological target: T2, human β2AR; test: cell-based or functional assay; remark: listed apart in the source
human β2AR [7] = biological target: T2, human β2AR; test: cell-based or functional assay; remark: listed apart in the source
human β2AR [8] = biological target: T2, human β2AR; test: cell-based or functional assay; remark: listed apart in the source
[9] = Table 18a overview, averaged values of IC50 shift

## CCC(C)[C@@H]1NC(=O)[C@@H](NC(=O)[C@H](CC(=O)O)NC(=O)[C@H](CCCNC(=N)N)NC(=O)[C@H](CS)NC(=O)[C@H](CC(=O)O)NC(=O)[C@H](CC(N)=O)NC(=O)[C@H](Cc2ccccc2)NC(C)=O)Cc2cn(nn2)CCCC[C@@H](C(=O)N[C@@H](Cc2c[nH]cn2)C(=O)N[C@@H](CC(C)C)C(=O)N[C@@H](CCCNC(=N)N)C(=O)N[C@@H](CCC(N)=O)C(=O)N[C@@H](Cc2ccc(O)cc2)C(=O)N[C@@H](CCC(=O)O)C(=O)N[C@@H](CC(C)C)C(=O)N[C@@H](CC(C)C)C(=O)O)NC(=O)[C@H](CCCNC(=N)N)NC(=O)[C@H](CCC(N)=O)NC1=O (stereo partly drawn) [compound 11, Ac-FNDCRD[PraIQRAzk]HLRQYELL-OH] (Ac-FNDCRD[Pra][Ile(3ξ)]QR[Lys(N3)]HLRQYELL-OH; triazole 7-11)
Human β2AR [1]; Table 5, ratio IC50 β2AR alone / IC50 β2AR + peptidomimetic
  Shift: 7
Human β2AR [1]; [9]
  Shift: 7

## CCC(C)[C@@H]1NC(=O)[C@@](C)(NC(=O)[C@H](CC(=O)O)NC(=O)[C@H](CCCNC(=N)N)NC(=O)[C@H](CS)NC(=O)[C@H](CC(=O)O)NC(=O)[C@H](CC(N)=O)NC(=O)[C@H](Cc2ccccc2)NC(C)=O)CCC/C=C\CCC[C@@](C)(C(=O)N[C@@H](Cc2c[nH]cn2)C(=O)N[C@@H](CC(C)C)C(=O)N[C@@H](CCCNC(=N)N)C(=O)N[C@@H](CCC(N)=O)C(=O)N[C@@H](Cc2ccc(O)cc2)C(=O)N[C@@H](CCC(=O)O)C(=O)N[C@@H](CC(C)C)C(=O)N[C@@H](CC(C)C)C(=O)O)NC(=O)[C@H](CCCNC(=N)N)NC(=O)[C@H](CCC(N)=O)NC1=O (stereo partly drawn) [compound 8, Ac-FNDCRD[S5IQRS5]HLRQYELL-OH] (Ac-FNDCRD[S5][Ile(3ξ)]QR[S5]HLRQYELL-OH; staple (Z) 7-11)
Human β2AR [1]; Table 4, ratio IC50 β2AR alone / IC50 β2AR + peptidomimetic
  Shift: 2
Human β2AR [1]; [9]
  Shift: 3

## Ac-KKKFN[PraCRDAzk]IQRMHLRQ1-NaIELL-OH (Ac-KKKFN[Pra′]CRD[Azk]IQRMHLRQ[1Nal]ELL-OH; triazole 6-10) [compound 57]
Human β2AR [1]; Table 18c overview, averaged values of IC50 shift
  Shift: 49

## QRMHLRQYELL [compound 21, Ac-QRMHLRQYELL-OH]
Human β2AR [1]; Table 1, ratio IC50 β2AR alone / IC50 β2AR + peptidomimetic
  Shift: 1
Human β2AR [1]; Table 18b overview, averaged values of IC50 shift
  Shift: 1

## Ac-FN[ECRDK]IQRMHLRQYELL-OH [compound 24]
Human β2AR [1]; Table 6, ratio IC50 β2AR alone / IC50 β2AR + peptidomimetic
  Shift: 7
Human β2AR [1]; [9]
  Shift: 7

## Ac-KKFN[Pra]CRD[Lys(N3)]IQRMHLRQYE[Cha]L-OH (triazole 5-9) [compound 74]
Human β2AR [2]
  Shift (averaged): 350
Human β2AR [3]
  Fraction HI (%): 89%
  IC50 (nM) of isoproterenol, [3H]-DHA RLA, peptidomimetic present: 4.7 nM
  Shift: 350

## Ac-KKKFN[Pra″]CRD[Lys(N3)]IQRMHLRQYEFL-OH (triazole 6-10) [compound 62]
Human β2AR [2]
  Shift (averaged): 87
Human β2AR [4]
  Fraction HI (%): 91%
  IC50 (nM) of isoproterenol, [3H]-DHA RLA, peptidomimetic present: 17.1 nM
  Shift: 93

## Ac-FNDCRDIIQRMHLRQYELA-OH [compound 79]
Human β2AR [2]
  Shift (averaged): 1
Human β2AR [5]
  IC50 (nM) of isoproterenol, [3H]-DHA RLA, peptidomimetic present: 849 nM
  Shift: 1

## Ac-FNDCRDIIQRMHLRQYEWL-OH [compound 69]
Human β2AR [2]
  Shift (averaged): 27
Human β2AR [4]
  Fraction HI (%): 51%
  IC50 (nM) of isoproterenol, [3H]-DHA RLA, peptidomimetic present: 28.9 nM
  Shift: 55

## Ac-KFN[Pra′]CRD[Azk]IQRMHLRQYELL-OH (triazole 4-8) [compound 41]
Human β2AR [2]
  Shift (averaged): 51
Human β2AR [6]
  IC50 (nM) of isoproterenol, [3H]-DHA RLA, peptidomimetic present: 26 nM
  Shift: 44

## Ac-FN[Pra′]CRD[Azk]IQRMHLRQYELL-OH [compound 22]
Human β2AR [7]
  Shift (averaged): 9

## Ac-KFN[Pra′]CRD[Azk]IQRMHLRQYE[Cha]L-OH (triazole 4-8) [compound 50]
Human β2AR [2]
  Shift (averaged): 373
Human β2AR [3]
  Fraction HI (%): 86%
  IC50 (nM) of isoproterenol, [3H]-DHA RLA, peptidomimetic present: 2.6 nM
  Shift: 616

## Ac-FNDCRDIIQRMHLRQYEFL-OH [compound 68]
Human β2AR [2]
  Shift (averaged): 35
Human β2AR [4]
  Fraction HI (%): 62%
  IC50 (nM) of isoproterenol, [3H]-DHA RLA, peptidomimetic present: 54.6 nM
  Shift: 29

## Ac-FNDCRDIIQRMHLRQYEAL-OH [compound 76]
Human β2AR [2]
  Shift (averaged): 1
Human β2AR [5]
  IC50 (nM) of isoproterenol, [3H]-DHA RLA, peptidomimetic present: 1070 nM
  Shift: 1

## Ac-FNDCRDIIQRMHLRQYALL-OH [compound 77]
Human β2AR [2]
  Shift (averaged): 5
Human β2AR [5]
  IC50 (nM) of isoproterenol, [3H]-DHA RLA, peptidomimetic present: 175 nM
  Shift: 5

## Ac-RFN[Pra′]CRD[Azk]IQRMHLRQYELL-OH (triazole 4-8) [compound 40]
Human β2AR [2]
  Shift (averaged): 37
Human β2AR [6]
  IC50 (nM) of isoproterenol, [3H]-DHA RLA, peptidomimetic present: 31.3 nM
  Shift: 37

## Ac-FNDCRDIIQRMHLRQAELL-OH [compound 78]
Human β2AR [2]
  Shift (averaged): 1
Human β2AR [5]
  IC50 (nM) of isoproterenol, [3H]-DHA RLA, peptidomimetic present: 616 nM
  Shift: 1

B1: compound 82 (peptide)
peptide: FNDCRDIIQRMHLRQXELL
HELM: PEPTIDE1{[ac].F.N.D.C.R.D.I.I.Q.R.M.H.L.R.Q.[Cha].E.L.L}$$$$V2.0
SMILES: CC[C@H](C)[C@H](NC(=O)[C@H](CC(=O)O)NC(=O)[C@H](CCCNC(=N)N)NC(=O)[C@H](CS)NC(=O)[C@H](CC(=O)O)NC(=O)[C@H](CC(N)=O)NC(=O)[C@H](Cc1ccccc1)NC(C)=O)C(=O)N[C@H](C(=O)N[C@@H](CCC(N)=O)C(=O)N[C@@H](CCCNC(=N)N)C(=O)N[C@@H](CCSC)C(=O)N[C@@H](Cc1c[nH]cn1)C(=O)N[C@@H](CC(C)C)C(=O)N[C@@H](CCCNC(=N)N)C(=O)N[C@@H](CCC(N)=O)C(=O)N[C@@H](CC1CCCCC1)C(=O)N[C@@H](CCC(=O)O)C(=O)N[C@@H](CC(C)C)C(=O)N[C@@H](CC(C)C)C(=O)O)[C@@H](C)CC
Human β2AR [8]
  IC50 (nM) of isoproterenol, [3H]-DHA RLA, peptidomimetic present: 25.6 nM
  Shift: 32
Human β2AR [2]
  Shift (averaged): 32
